According to the Human Domainome abundance scans (Beltran et al. 2025):
± gives the uncertainty stated by the source.

B1: Arginine-glutamic acid dipeptide repeats protein, residues 502 to 543; numbered along this chain, Q9P2R6 (parent)
chain: LKGYACRHCFTTTSKDWHHGGRENILLCTDCRIHFKKYGELP

Variants of: B1
Assay: abundance fitness (aPCA) (normalised: wild type 0, dead -1); higher = more abundant; growth selection in yeast, the domain comes from the species named
Conditions: Homo sapiens
In the case of LKGYACRHCFETTSKDWHHGGRENILLCTDCRIHFKKYGELP, the abundance fitness is reported as -0.4 ± 0.047. LKGYACRHCFFTTSKDWHHGGRENILLCTDCRIHFKKYGELP showed an abundance fitness of -0.561 ± 0.43. For LKGYACRHCFGTTSKDWHHGGRENILLCTDCRIHFKKYGELP, the abundance fitness was -0.241 ± 0.032. In the case of LKGYACRHCFITTSKDWHHGGRENILLCTDCRIHFKKYGELP, the abundance fitness is reported as -0.204 ± 0.05. LKGYACRHCFKTTSKDWHHGGRENILLCTDCRIHFKKYGELP gave an abundance fitness of -0.172 ± 0.052. Variant LKGYACRHCFLTTSKDWHHGGRENILLCTDCRIHFKKYGELP has an abundance fitness of -0.375 ± 0.043. LKGYACRHCFMTTSKDWHHGGRENILLCTDCRIHFKKYGELP showed an abundance fitness of -0.413 ± 0.045. LKGYACRHCFNTTSKDWHHGGRENILLCTDCRIHFKKYGELP showed an abundance fitness of -0.168 ± 0.066. In the case of LKGYACRHCFPTTSKDWHHGGRENILLCTDCRIHFKKYGELP, the abundance fitness is reported as -0.51 ± 0.066. Work on LKGYACRHCFQTTSKDWHHGGRENILLCTDCRIHFKKYGELP yielded an abundance fitness of -0.278 ± 0.046. With LKGYACRHCFRTTSKDWHHGGRENILLCTDCRIHFKKYGELP the abundance fitness was -0.236 ± 0.033. LKGYACRHCFSTTSKDWHHGGRENILLCTDCRIHFKKYGELP gave an abundance fitness of -0.083 ± 0.035. LKGYACRHCFVTTSKDWHHGGRENILLCTDCRIHFKKYGELP gave an abundance fitness of -0.195 ± 0.036. LKGYACRHCFWTTSKDWHHGGRENILLCTDCRIHFKKYGELP gave an abundance fitness of -0.589 ± 0.046. With LKGYACRHCFYTTSKDWHHGGRENILLCTDCRIHFKKYGELP the abundance fitness was -0.607 ± 0.066. Work on LKGYACRHCFTATSKDWHHGGRENILLCTDCRIHFKKYGELP yielded an abundance fitness of -0.234 ± 0.038. Variant LKGYACRHCFTCTSKDWHHGGRENILLCTDCRIHFKKYGELP has an abundance fitness of -0.304 ± 0.043. Work on LKGYACRHCFTDTSKDWHHGGRENILLCTDCRIHFKKYGELP yielded an abundance fitness of -0.141 ± 0.055. Variant LKGYACRHCFTETSKDWHHGGRENILLCTDCRIHFKKYGELP has an abundance fitness of -0.175 ± 0.051. In the case of LKGYACRHCFTFTSKDWHHGGRENILLCTDCRIHFKKYGELP, the abundance fitness is reported as -0.314 ± 0.32. For LKGYACRHCFTGTSKDWHHGGRENILLCTDCRIHFKKYGELP, the abundance fitness was -0.312 ± 0.032. LKGYACRHCFTKTSKDWHHGGRENILLCTDCRIHFKKYGELP showed an abundance fitness of -0.135 ± 0.048. LKGYACRHCFTLTSKDWHHGGRENILLCTDCRIHFKKYGELP gave an abundance fitness of -0.338 ± 0.039. With LKGYACRHCFTMTSKDWHHGGRENILLCTDCRIHFKKYGELP the abundance fitness was -0.241 ± 0.052. LKGYACRHCFTNTSKDWHHGGRENILLCTDCRIHFKKYGELP showed an abundance fitness of -0.251 ± 0.13. LKGYACRHCFTPTSKDWHHGGRENILLCTDCRIHFKKYGELP gave an abundance fitness of -0.317 ± 0.043. LKGYACRHCFTQTSKDWHHGGRENILLCTDCRIHFKKYGELP showed an abundance fitness of -0.159 ± 0.049. With LKGYACRHCFTRTSKDWHHGGRENILLCTDCRIHFKKYGELP the abundance fitness was -0.141 ± 0.034. Variant LKGYACRHCFTSTSKDWHHGGRENILLCTDCRIHFKKYGELP has an abundance fitness of -0.205 ± 0.044. Work on LKGYACRHCFTVTSKDWHHGGRENILLCTDCRIHFKKYGELP yielded an abundance fitness of -0.343 ± 0.033. LKGYACRHCFTWTSKDWHHGGRENILLCTDCRIHFKKYGELP showed an abundance fitness of -0.669 ± 0.058. Variant LKGYACRHCFTYTSKDWHHGGRENILLCTDCRIHFKKYGELP has an abundance fitness of -0.549 ± 0.14. In the case of LKGYACRHCFTTASKDWHHGGRENILLCTDCRIHFKKYGELP, the abundance fitness is reported as -0.054 ± 0.032. In the case of LKGYACRHCFTTCSKDWHHGGRENILLCTDCRIHFKKYGELP, the abundance fitness is reported as -0.164 ± 0.058. With LKGYACRHCFTTESKDWHHGGRENILLCTDCRIHFKKYGELP the abundance fitness was 0.014 ± 0.047. With LKGYACRHCFTTFSKDWHHGGRENILLCTDCRIHFKKYGELP the abundance fitness was -0.179 ± 0.11. Work on LKGYACRHCFTTHSKDWHHGGRENILLCTDCRIHFKKYGELP yielded an abundance fitness of -0.045 ± 0.079. In the case of LKGYACRHCFTTISKDWHHGGRENILLCTDCRIHFKKYGELP, the abundance fitness is reported as -0.282 ± 0.08. In the case of LKGYACRHCFTTKSKDWHHGGRENILLCTDCRIHFKKYGELP, the abundance fitness is reported as 0.018 ± 0.052. For LKGYACRHCFTTLSKDWHHGGRENILLCTDCRIHFKKYGELP, the abundance fitness was -0.223 ± 0.054. Variant LKGYACRHCFTTMSKDWHHGGRENILLCTDCRIHFKKYGELP has an abundance fitness of -0.185 ± 0.058. LKGYACRHCFTTNSKDWHHGGRENILLCTDCRIHFKKYGELP gave an abundance fitness of -0.043 ± 0.1. For LKGYACRHCFTTPSKDWHHGGRENILLCTDCRIHFKKYGELP, the abundance fitness was -0.484 ± 0.066. LKGYACRHCFTTQSKDWHHGGRENILLCTDCRIHFKKYGELP showed an abundance fitness of -0.039 ± 0.058. For LKGYACRHCFTTRSKDWHHGGRENILLCTDCRIHFKKYGELP, the abundance fitness was 0.012 ± 0.036. Variant LKGYACRHCFTTVSKDWHHGGRENILLCTDCRIHFKKYGELP has an abundance fitness of -0.125 ± 0.04. For LKGYACRHCFTTWSKDWHHGGRENILLCTDCRIHFKKYGELP, the abundance fitness was -0.31 ± 0.044. For LKGYACRHCFTTYSKDWHHGGRENILLCTDCRIHFKKYGELP, the abundance fitness was -0.223 ± 0.17. In the case of LKGYACRHCFTTTAKDWHHGGRENILLCTDCRIHFKKYGELP, the abundance fitness is reported as -0.228 ± 0.036. LKGYACRHCFTTTCKDWHHGGRENILLCTDCRIHFKKYGELP showed an abundance fitness of -0.315 ± 0.068. With LKGYACRHCFTTTDKDWHHGGRENILLCTDCRIHFKKYGELP the abundance fitness was -0.073 ± 0.11. LKGYACRHCFTTTEKDWHHGGRENILLCTDCRIHFKKYGELP gave an abundance fitness of -0.223 ± 0.043. LKGYACRHCFTTTFKDWHHGGRENILLCTDCRIHFKKYGELP gave an abundance fitness of -0.516 ± 0.19. For LKGYACRHCFTTTGKDWHHGGRENILLCTDCRIHFKKYGELP, the abundance fitness was -0.291 ± 0.035. LKGYACRHCFTTTIKDWHHGGRENILLCTDCRIHFKKYGELP showed an abundance fitness of -0.454 ± 0.22. LKGYACRHCFTTTKKDWHHGGRENILLCTDCRIHFKKYGELP gave an abundance fitness of -0.066 ± 0.12. LKGYACRHCFTTTLKDWHHGGRENILLCTDCRIHFKKYGELP showed an abundance fitness of -0.536 ± 0.038. For LKGYACRHCFTTTMKDWHHGGRENILLCTDCRIHFKKYGELP, the abundance fitness was -0.455 ± 0.098. Variant LKGYACRHCFTTTPKDWHHGGRENILLCTDCRIHFKKYGELP has an abundance fitness of -0.361 ± 0.048. LKGYACRHCFTTTRKDWHHGGRENILLCTDCRIHFKKYGELP showed an abundance fitness of -0.451 ± 0.034.
